Experimental data: PMC11782559, “Innovative CDR grafting and computational methods for PD-1 specific nanobody design” (Frontiers in Bioinformatics, 2024)

Target: T1, human PD-1 Fc recombinant protein (Homo sapiens, UniProt Q15116)
T1 construct: Programmed Cell Death Protein-1 (PD-1), human, bought as an Fc fusion; Ran at about 63 kDa in the blot; Surmise: the commercial product holds the extracellular domain of PD-1 fused to a human IgG1 Fc; The ELISA methods say only 'recombinant human PD-1'; also called recombinant human PD-1; Programmed Cell Death Protein-1; source: bought: Peprotech, Catalog # 310-40-1 MG
Experiment: far-Western, overlay or dot blot; Western blot: PD-1 Fc (200 ng) separated on 12% SDS-PAGE (denatured), transferred to nitrocellulose, blocked with 5% milk in TBST, probed overnight at 4°C with 10 μg/mL purified nanobody, detected with anti-His tag HRP antibody
Details: both partners purified

T1 sequence (Q15116 25-170): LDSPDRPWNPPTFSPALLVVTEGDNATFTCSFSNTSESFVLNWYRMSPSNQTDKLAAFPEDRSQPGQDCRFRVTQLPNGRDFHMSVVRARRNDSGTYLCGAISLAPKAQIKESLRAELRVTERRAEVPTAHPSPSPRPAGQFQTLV

B1: designed PD-1-specific nanobody (Cemiplimab CDRs grafted onto Caplacizumab framework regions) (VHH)
VHH: EVQLVESGGGLVQPGGSLRLSCAASGFTFSNFGMGWFRQAPGKGRELVAAISGGGRDTYYPDSVEGRFTISRDNAKRMVYLQMNSLRAEDTAVYYCVKWGNIYFDYWGQGTQVTVSS
notes: CDRs of the Cemiplimab heavy chain grafted onto the framework regions of Caplacizumab; 117 residues, 12.5 kDa without tag; Gene inserted into pET-28a (+) at NdeI and XhoI; with His tag about 13.5 kDa; Surmise: this cloning usually gives an N-terminal His6 tag with a thrombin site from the vector; also called NB; designed nanobody; source: E. coli BL21 (DE3), pET-28a (+), purified (Ni-NTA, …)
B1: binds.
